From IntAct's records for PubMed 23940353

B1: ADP-ribosylation factor 6 (Homo sapiens), P62330 (parent)
chain: MGKVLSKIFGNKEMRILMLGLDAAGKTTILYKLKLGQSVTTIPTVGFNVETVTYKNVKFNVWDVGGQDKIRPLWRHYYTGTQGLIFVVDCADRDRIDEARQELHRIINDREMRDAIILIFANKQDLPDAMKPHEIQEKLGLTRIRDRNWYVQPSCATSGDGLYEGLTWLTSNYKS
B2: Cytohesin-3 (Homo sapiens), O43739-2 (parent)
chain: MDEDGGGEGGGVPEDLSLEEREELLDIRRRKKELIDDIERLKYEIAEVMTEIDNLTSVEESKTTQRNKQIAMGRKKFNMDPKKGIQFLIENDLLQSSPEDVAQFLYKGEGLNKTVIGDYLGERDEFNIKVLQAFVELHEFADLNLVQALRQFLWSFRLPGEAQKIDRMMEAFASRYCLCNPGVFQSTDTCYVLSFAIIMLNTSLHNHNVRDKPTAERFIAMNRGINEGGDLPEELLRNLYESIKNEPFKIPEDDGNDLTHTFFNPDREGWLLKLGGRVKTWKRRWFILTDNCLYYFEYTTDKEPRGIIPLENLSIREVEDPRKPNCFELYNPSHKGQVIKACKTEADGRVVEGNHVVYRISAPSPEEKEEWMKSIKASISRDPFYDMLATRKRRIANKK

What was measured:
CYTH3, O43739-2 = variants of: B1; conditions: with CYTH3, O43739-2
CYTH1, Q15438-2 = variants of: B1; conditions: with CYTH1, Q15438-2
Chain of CYTH1, Q15438-2 (Q15438 other isoform, or with tags, fused parts or gaps): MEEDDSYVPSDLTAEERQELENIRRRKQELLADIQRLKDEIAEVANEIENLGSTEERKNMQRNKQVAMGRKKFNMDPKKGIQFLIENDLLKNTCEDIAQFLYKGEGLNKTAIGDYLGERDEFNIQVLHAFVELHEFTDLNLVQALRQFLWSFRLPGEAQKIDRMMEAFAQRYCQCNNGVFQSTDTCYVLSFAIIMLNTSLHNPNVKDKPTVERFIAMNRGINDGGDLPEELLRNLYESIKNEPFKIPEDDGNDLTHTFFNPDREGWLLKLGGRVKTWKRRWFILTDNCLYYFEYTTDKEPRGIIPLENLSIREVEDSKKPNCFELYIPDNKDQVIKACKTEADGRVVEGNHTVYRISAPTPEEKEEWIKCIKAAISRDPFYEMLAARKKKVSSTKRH

CYTH2, Q99418-2 = variants of: B1; conditions: with CYTH2, Q99418-2
Chain of CYTH2, Q99418-2 (Q99418 other isoform, or with tags, fused parts or gaps): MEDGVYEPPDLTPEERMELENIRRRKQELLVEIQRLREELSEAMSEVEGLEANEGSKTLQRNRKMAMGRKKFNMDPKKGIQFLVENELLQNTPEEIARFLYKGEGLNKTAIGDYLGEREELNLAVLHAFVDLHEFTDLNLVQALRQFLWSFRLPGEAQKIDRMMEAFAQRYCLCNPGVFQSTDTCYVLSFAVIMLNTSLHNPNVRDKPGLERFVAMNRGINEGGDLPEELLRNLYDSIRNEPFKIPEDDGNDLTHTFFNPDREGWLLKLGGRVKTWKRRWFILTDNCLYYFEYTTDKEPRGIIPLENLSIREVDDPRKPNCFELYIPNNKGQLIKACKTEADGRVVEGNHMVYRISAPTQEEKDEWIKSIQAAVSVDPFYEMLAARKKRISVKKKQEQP

arf6_human ARF6, P62330 = variants of: B2; conditions: with arf6_human ARF6, P62330

Row | effect of a mutation on the interaction (CYTH3, O43739-2) | effect of a mutation on the interaction (CYTH1, Q15438-2) | effect of a mutation on the interaction (CYTH2, Q99418-2) | effect of a mutation on the interaction (arf6_human ARF6, P62330) | Variant
1 | with no effect | with no effect | with no effect | – | Q67L
2 | – | – | – | decreasing interaction strength | MDEDGGGEGGGVPEDLSLEEREELLDIRRRKKELIDDIERLKYEIAEVMTEIDNLTSVEESKTTQRNKQIAMGRKKFNMDPKKGIQFLIENDLLQSSPEDVAQFLYKGEGLNKTVIGDYLGERDEFNIKVLQAFVELHEFADLNLVQALRQFLWSFRLPGEAQKIDRMMEAFASRYCLCNPGVFQSTDTCYVLSFAIIMLNTSLHNHNVRDKPTAERFIAMNRGINEGGDLPEELLRNLYESIKNEPFKIPEDDGNDLTHTFFNPDREGWLLKLGGRVKTWKRRWFILTDNCLYYFEYTTDKEPRGIIPLENLSIREVEDPRKPNCFELYNPSHKGQVIKACKTEADGRVVEGNHVVYRISAPSPEEKEEWMKSIKASISRDPFYDMLATRARRIANKK [K392A]
3 | – | – | – | decreasing interaction strength | MDEDGGGEGGGVPEDLSLEEREELLDIRRRKKELIDDIERLKYEIAEVMTEIDNLTSVEESKTTQRNKQIAMGRKKFNMDPKKGIQFLIENDLLQSSPEDVAQFLYKGEGLNKTVIGDYLGERDEFNIKVLQAFVELHEFADLNLVQALRQFLWSFRLPGEAQKIDRMMEAFASRYCLCNPGVFQSTDTCYVLSFAIIMLNTSLHNHNVRDKPTAERFIAMNRGINEGGDLPEELLRNLYESIKNEPFKIPEDDGNDLTHTFFNPDREGWLLKLGGRVKTWKRRWFILTDNCLYYFEYTTDKEPRGIIPLENLSIREVEDPRKPNCFELYNPSHKGQVIKACKTEADGRVVEGNHVVYRISAPSPEEKEEWMKSIKASISRDPFYDMAATRKRRIANKK [L388A]
